The values below are quoted from earlier work in patent US20160346224A1, “COMPOSITIONS AND METHODS FOR REDUCING VISUAL LOSS” (Edge Therapeutics, Inc., priority 2015, published 2016).

No end group written: not given here.

For one data set, the target named is N-type calcium current (Homo sapiens, UniProt Q00975). To be noted: at 300 nM to 500 nM.
In data set [1] the target is T1, R-type calcium current in the neurohypophysial nerve endings (Rattus norvegicus, UniProt Q07652).
T1 construct: R-type calcium current in the neurohypophysial nerve endings at 40 nM concentration; host or cells: neurohypophysial nerve endings (native tissue preparation)
T1 sequence (Q07652 whole entry): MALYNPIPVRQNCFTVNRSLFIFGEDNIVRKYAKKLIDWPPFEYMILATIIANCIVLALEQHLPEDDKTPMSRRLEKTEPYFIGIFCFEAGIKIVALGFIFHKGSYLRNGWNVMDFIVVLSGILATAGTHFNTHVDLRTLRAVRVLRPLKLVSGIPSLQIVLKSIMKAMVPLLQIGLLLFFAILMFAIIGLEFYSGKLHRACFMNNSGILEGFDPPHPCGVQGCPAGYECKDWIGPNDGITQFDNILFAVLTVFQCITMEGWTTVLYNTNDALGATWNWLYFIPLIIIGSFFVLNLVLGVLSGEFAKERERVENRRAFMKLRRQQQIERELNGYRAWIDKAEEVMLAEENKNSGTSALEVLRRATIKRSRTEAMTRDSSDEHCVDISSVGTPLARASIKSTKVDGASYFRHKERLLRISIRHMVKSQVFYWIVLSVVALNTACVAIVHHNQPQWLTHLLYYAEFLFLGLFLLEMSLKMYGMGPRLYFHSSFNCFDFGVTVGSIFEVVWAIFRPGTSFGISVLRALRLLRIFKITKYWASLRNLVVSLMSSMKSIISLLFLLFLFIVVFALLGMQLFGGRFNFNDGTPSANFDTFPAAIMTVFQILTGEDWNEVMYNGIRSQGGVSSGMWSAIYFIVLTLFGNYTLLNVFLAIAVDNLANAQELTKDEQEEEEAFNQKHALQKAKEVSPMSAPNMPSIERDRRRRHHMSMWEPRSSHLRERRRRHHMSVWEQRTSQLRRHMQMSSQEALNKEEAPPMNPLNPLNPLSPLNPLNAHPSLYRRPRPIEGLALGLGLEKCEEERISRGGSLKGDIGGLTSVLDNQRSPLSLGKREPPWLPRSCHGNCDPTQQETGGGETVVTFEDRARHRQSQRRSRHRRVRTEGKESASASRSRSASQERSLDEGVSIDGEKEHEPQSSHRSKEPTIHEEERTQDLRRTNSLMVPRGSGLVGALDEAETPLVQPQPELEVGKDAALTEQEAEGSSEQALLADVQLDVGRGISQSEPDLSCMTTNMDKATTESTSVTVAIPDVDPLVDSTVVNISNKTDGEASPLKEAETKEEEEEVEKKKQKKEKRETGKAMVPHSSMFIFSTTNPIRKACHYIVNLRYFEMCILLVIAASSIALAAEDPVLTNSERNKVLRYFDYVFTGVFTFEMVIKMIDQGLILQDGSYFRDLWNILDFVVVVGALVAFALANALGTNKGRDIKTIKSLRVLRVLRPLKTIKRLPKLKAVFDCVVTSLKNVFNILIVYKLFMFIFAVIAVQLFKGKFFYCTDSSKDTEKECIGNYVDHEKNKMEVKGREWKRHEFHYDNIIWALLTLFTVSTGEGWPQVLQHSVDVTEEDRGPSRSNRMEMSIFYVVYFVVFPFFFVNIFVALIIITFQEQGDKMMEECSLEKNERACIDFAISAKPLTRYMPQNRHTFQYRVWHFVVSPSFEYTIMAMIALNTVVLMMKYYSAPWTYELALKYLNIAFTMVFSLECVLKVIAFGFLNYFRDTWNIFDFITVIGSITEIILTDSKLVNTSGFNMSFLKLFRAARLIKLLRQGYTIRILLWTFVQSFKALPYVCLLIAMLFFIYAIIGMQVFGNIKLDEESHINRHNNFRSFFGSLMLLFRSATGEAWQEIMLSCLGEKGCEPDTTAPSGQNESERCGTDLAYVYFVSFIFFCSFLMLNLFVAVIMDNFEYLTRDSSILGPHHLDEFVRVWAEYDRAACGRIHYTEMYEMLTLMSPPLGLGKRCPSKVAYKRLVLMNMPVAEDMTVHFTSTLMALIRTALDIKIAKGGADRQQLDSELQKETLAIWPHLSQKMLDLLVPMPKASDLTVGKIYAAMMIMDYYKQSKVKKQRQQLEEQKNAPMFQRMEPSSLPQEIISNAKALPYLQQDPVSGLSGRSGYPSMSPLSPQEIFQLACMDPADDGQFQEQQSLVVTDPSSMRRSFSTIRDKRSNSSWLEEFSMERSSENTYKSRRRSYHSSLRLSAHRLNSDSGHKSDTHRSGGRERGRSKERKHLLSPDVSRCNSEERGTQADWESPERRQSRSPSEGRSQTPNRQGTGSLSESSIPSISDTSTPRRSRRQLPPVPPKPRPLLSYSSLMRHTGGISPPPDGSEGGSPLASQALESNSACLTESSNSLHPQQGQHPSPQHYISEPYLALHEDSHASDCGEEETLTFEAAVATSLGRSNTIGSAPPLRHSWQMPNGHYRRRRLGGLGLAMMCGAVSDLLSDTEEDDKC
To be noted: at 40 nM concentration.

Data set [2] relates to R-type current in preparations of the neuronal cell body, retinal ganglion cells and hippocampal pyramidal cells.
The test system of data set [3] is K+ and Na+ currents, and L, P/Q and T-type calcium currents.

N-type calcium current, sequence (Q00975 whole entry): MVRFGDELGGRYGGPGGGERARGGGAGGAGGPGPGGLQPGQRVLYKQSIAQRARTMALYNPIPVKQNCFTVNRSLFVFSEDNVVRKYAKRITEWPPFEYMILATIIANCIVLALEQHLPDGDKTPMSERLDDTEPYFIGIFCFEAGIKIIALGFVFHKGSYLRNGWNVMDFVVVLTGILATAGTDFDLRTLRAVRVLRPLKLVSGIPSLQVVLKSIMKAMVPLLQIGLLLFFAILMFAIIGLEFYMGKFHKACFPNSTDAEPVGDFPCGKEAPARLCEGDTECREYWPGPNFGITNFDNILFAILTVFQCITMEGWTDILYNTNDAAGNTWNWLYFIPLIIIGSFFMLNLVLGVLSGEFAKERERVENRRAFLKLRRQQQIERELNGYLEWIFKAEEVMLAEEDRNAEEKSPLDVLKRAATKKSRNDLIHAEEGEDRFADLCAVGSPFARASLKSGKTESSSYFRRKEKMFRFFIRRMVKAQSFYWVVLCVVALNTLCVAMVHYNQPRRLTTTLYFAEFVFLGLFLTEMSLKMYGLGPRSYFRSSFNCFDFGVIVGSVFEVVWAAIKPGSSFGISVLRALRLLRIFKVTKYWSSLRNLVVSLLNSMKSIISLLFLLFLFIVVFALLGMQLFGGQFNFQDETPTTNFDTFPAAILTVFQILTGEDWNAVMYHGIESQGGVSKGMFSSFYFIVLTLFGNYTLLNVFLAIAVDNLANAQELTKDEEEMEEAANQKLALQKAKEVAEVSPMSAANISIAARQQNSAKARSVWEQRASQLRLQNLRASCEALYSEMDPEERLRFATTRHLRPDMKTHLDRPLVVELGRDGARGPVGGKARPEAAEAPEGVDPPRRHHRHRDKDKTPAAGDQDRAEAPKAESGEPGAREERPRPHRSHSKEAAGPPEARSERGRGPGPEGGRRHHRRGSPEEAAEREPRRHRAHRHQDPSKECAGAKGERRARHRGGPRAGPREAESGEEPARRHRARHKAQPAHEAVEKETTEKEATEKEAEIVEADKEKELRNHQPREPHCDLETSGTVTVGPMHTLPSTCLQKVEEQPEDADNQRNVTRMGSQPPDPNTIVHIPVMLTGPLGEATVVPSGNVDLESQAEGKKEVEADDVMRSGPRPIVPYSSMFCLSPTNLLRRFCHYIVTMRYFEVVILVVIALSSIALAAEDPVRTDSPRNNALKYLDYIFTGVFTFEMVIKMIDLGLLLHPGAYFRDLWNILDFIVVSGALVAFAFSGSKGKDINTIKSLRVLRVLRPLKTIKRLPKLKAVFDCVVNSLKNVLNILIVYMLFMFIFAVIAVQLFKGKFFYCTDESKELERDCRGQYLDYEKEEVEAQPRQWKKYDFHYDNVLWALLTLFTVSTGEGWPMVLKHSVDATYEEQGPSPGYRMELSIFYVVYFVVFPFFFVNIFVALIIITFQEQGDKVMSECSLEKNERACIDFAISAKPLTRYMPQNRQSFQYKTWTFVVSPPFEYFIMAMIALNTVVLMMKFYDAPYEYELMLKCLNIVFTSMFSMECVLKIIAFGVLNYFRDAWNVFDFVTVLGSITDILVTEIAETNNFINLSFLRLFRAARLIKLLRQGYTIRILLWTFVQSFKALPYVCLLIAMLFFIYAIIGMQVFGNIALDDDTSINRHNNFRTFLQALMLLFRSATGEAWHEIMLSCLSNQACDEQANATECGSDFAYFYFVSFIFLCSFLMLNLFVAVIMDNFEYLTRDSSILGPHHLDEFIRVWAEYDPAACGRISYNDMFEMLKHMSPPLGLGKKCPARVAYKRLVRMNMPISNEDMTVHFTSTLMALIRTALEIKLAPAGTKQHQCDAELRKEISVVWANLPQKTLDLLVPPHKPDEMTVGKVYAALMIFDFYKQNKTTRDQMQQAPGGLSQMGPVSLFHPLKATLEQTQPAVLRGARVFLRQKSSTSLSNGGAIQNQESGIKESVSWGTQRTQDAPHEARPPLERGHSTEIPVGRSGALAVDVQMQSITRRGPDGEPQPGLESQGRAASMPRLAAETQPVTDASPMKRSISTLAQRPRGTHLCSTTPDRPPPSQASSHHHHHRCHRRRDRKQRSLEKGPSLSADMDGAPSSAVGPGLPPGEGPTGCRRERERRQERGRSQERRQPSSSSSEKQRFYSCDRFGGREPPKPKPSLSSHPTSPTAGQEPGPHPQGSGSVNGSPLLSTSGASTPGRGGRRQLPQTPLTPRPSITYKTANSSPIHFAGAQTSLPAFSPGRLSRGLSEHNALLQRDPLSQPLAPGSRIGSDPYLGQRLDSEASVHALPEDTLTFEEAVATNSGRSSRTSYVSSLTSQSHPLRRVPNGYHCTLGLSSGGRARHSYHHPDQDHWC

As to “SNX-482: toxin from the tarantula Hysterocrates gigas, a 41 amino acid residue peptide with 3 disulfide linkages; putative R-type selective antagonist (GVDKAGCRYMFGGCSVNDDCCPRLGCHSLFSYCAWDLTFSD; disulfide (positions not given here); also: 3 disulfide linkages, pairings not given here; UniProt P56854 1-41, looked up)”, in the data set with N-type calcium current, the “block of N-type calcium current” value is on record as 30-50%. The “block of R-type calcium current” value in data set [1] is reported as “blocks”. Further, in data set [2], the “effect on R-type current” value is reported as “no significant effect”. Further, the “effect on K+ and Na+ currents, and L, P/Q and T-type calcium currents” value in data set [3] was “no effect”.
